Tests used:
Experiment in all cases: EMSA
Oct4^151M POU domain = conditions: homodimer on MORE (OctOct) DNA element TCCTCATGAATATTCATGAGGA; n = 3-13; parent: est. 7; read off a plot
Sox2 HMG (79-aa protein) = conditions: Sox2-Oct heterodimer on SoxOct DNA element CCATGGACATTGTAATGCAAAAGAAGCTG, n = 3-13, read off a plot
Oct6^151S POU domain = conditions: homodimer on MORE (OctOct) DNA element TCCTCATGAATATTCATGAGGA; n = 3-13; parent: est. 160; read off a plot

| other: cooperativity factor (Oct4^151M POU domain) | other: cooperativity factor (Sox2 HMG (79-aa protein); parent: est. 12) | other: cooperativity factor (Oct6^151S POU domain) | other: cooperativity factor (Sox2 HMG (79-aa protein); parent: est. 4.5) | Substance |
| --- | --- | --- | --- | --- |
| 140 | 29 |  |  | Oct4 POU domain S151M |
|  |  | 4 | 2.5 | Oct6 POU domain M151S |

Source: publication PMC5286379
